Legend:
human CD3 epsilon = biological target: T1, human CD3 epsilon (human, UniProt P07766 23-126, limits assumed); assay: affinity of IgG; method not stated; human CD3 epsilon
T1 construct: also called hCD3; hCD3 epsilon

CRTH2R [1] = biological target: T2, CRTH2R (UniProt Q9Y5Y4 1-395, limits assumed); assay: cell-based or functional assay
T2 sequence (looked up): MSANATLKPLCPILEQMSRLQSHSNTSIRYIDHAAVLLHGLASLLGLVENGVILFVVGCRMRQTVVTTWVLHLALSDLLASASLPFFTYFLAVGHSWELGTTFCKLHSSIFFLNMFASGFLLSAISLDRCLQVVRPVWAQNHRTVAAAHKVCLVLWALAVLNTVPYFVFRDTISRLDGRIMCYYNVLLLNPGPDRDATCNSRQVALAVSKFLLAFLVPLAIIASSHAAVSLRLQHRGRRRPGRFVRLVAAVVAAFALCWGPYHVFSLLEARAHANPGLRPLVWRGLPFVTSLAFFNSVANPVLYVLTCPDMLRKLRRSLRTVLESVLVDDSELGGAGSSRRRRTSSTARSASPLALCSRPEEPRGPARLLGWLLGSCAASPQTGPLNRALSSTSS

CRTH2R [2] = biological target: T2, CRTH2R; assay: flow cytometry (MFI), CHO CRTH2R-positive cells against parental CHO cells; same panel as in FIG. 15C; grey = CRTH2R cells, black = parental cells (no legend on the panel)
Description: (§1) Cell binding of anti-CRTH2R antibodies was determined by testing on CHO CRTH2R-positive cells (GFP+) and parental CHO cells (GFP−), comparing parental negative and target positive cells to rule out false-positives. Antibodies as listed in Table 14A were titrated starting at 100 nM (15 ug/mL) with 3-fold titrations, for a total of 8 points. Two antibodies (gPCR-51 and gPCR-52) were used as a positive control.

CRTH2R [3] = biological target: T2, CRTH2R; assay: flow cytometry (MFI), CHO CRTH2R-positive cells against parental CHO cells, 3-fold titration from 100 nM; grey = CRTH2R cells, black = parental cells (no legend on the panel)
Description: as §1

T1 sequence (P07766 23-126 limits assumed): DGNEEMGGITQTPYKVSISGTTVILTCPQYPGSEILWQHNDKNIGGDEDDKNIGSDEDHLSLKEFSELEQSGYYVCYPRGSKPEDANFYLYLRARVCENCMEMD

Binder | Kd (human CD3 epsilon) [nM] | IC50 fold difference of the PGD2 dose response (cAMP) with 100 nM IgG (CRTH2R [1]) [fold] | EC50 (CRTH2R [2]) [nM] | EC50 (CRTH2R [3]) [nM]
CD3-56-05 (antibody, V domains shown, IgG; also called CD3-56-5) VH: EVQLLESGGGLVQPGGSLRLSCAASGFTFSSYAMNWVRQAPGKGLEWVSAVSGSGGRTYYADSVKGRFTISRDNSKNTLYLQMNSLRAEDTAVYYCARERATTLDYWGQGTLVTVSS VL: DIQMTQSPSSLSASVGDRVTITCRASQTIYSHLNWYQQKPGKAPKLLIYVASRLQSGVPSRFSGSGSGTDFTLTISSLQPEDFATYYCQQSFSTSWTFGGGTKVEIK | 67 | – | – | –
CRTH2-32 (antibody, V domains shown, CRTH2R IgG) VH: QVQLVESGGGVVQPGRSLRLSCAASGFTFSKHGMHWVRQAPGKGLEWVAFISYEGSEKYYADSVKGRFTISRDNSKNTLYLQMNSLRAEDTAVYYCARDMYYDFHYSTVGATYYYYLGSETEVVPADDAFDIWGQGTLVTVSS VL: QSALTQPASVSGSPGQSITISCTGTSSGVGGYDYVSWYQQHPGKAPKLMIYDDNNRPSGVSNRFSGSKSGNTASLTISGLQAEDEADYYCSSYTGSSTLYVFGGGTKLTVL | – | > 2 | 12.4 | 12.4

Reference: US20210102195A1 (TWIST BIOSCIENCE, published 2021)
